Source: US20230408517A1 (BIO TECHNE, published 2023)
Read-outs that look alike come from different tables or passages of the source.

Tests used:
[1] = target: T1, SARS-CoV spike RBD (R306-F527), C-terminal 6-His (SARS-CoV, UniProt P59594 306-527); test: flow cytometry, blocking of binding to hACE-2 cells
[2] = target: T2, recombinant monomeric SARS-CoV-1 S1 protein (SARS-CoV-1, UniProt P59594 14-667); test: as above
BSA [3] = target: T3, BSA (bovine, UniProt P02769); test: dipstick, adsorbed protein spots, Ab 10 µg/mL, GAM-AuNP
T3 construct: also called bovine serum albumin
T3 sequence (P02769 25-607 limits assumed): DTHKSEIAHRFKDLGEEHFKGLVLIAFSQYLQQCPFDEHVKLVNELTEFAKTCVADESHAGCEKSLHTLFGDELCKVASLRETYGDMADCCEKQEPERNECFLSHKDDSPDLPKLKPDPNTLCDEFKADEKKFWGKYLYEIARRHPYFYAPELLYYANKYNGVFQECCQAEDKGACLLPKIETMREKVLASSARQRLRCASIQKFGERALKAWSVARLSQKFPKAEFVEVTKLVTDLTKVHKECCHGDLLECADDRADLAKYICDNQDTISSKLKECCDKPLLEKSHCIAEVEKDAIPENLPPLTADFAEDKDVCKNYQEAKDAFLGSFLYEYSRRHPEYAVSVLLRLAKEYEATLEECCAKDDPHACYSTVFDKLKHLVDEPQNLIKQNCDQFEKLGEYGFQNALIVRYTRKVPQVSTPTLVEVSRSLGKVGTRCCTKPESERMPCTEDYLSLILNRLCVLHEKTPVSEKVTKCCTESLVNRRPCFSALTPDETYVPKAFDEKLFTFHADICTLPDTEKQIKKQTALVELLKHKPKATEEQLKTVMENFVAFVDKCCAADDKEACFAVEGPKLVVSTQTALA

[4] = target: T2, recombinant monomeric SARS-CoV-1 S1 …; test: antigen-down ELISA, coated SARS-CoV-1 S1 titrated, Ab 1 µg/mL
[5] = target: T4, recombinant monomeric SARS-CoV-2 S1 protein, his-tagged (SARS-CoV-2, UniProt P0DTC2 16-681); test: flow cytometry, blocking of binding to hACE-2 cells
T4 construct: domain: S1

[6] = target: T4, recombinant monomeric SARS-CoV-2 S1 …; test: as above; remark: listed apart in the source
[7] = target: T1, SARS-CoV spike RBD (R306-F527), …; test: as above; remark: listed apart in the source
[8] = target: T5, recombinant his-tagged homotrimeric SARS-CoV-2 spike protein (SARS-CoV-2, UniProt P0DTC2 16-1211); test: as above
[9] = target: T2, recombinant monomeric SARS-CoV-1 S1 …; test: as above; remark: listed apart in the source
[10] = target: T1, SARS-CoV spike RBD (R306-F527), …; test: antigen-down ELISA, coated SARS-CoV-1 S1 RBD titrated, Ab 1 µg/mL
[11] = target: T5, recombinant his-tagged homotrimeric …; test: flow cytometry, blocking of binding to hACE-2 cells; remark: listed apart in the source
[12] = target: T2, recombinant monomeric SARS-CoV-1 S1 …; test: antigen-down ELISA, coated SARS-CoV-1 S1 titrated, Ab 1 µg/mL; remark: listed apart in the source
BSA [13] = target: T3, BSA; test: dipstick, adsorbed protein spots, Ab 10 µg/mL, GAM-AuNP; remark: listed apart in the source
[14] = target: T1, SARS-CoV spike RBD (R306-F527), …; test: antigen-down ELISA, coated SARS-CoV-1 S1 RBD titrated, Ab 1 µg/mL; remark: listed apart in the source
[15] = target: T1, SARS-CoV spike RBD (R306-F527), …; test: as above; remark: listed apart in the source
[16] = target: T2, recombinant monomeric SARS-CoV-1 S1 …; test: antigen-down ELISA, coated SARS-CoV-1 S1 titrated, Ab 1 µg/mL; remark: listed apart in the source
BSA [17] = target: T3, BSA; test: dipstick, adsorbed protein spots, Ab 10 µg/mL, GAM-AuNP; remark: listed apart in the source
[18] = target: T2, recombinant monomeric SARS-CoV-1 S1 …; test: antigen-down ELISA, coated SARS-CoV-1 S1 titrated, Ab 1 µg/mL; remark: listed apart in the source
[19] = target: T1, SARS-CoV spike RBD (R306-F527), …; test: antigen-down ELISA, coated SARS-CoV-1 S1 RBD titrated, Ab 1 µg/mL; remark: listed apart in the source
BSA [20] = target: T3, BSA; test: dipstick, adsorbed protein spots, Ab 10 µg/mL, GAM-AuNP; remark: listed apart in the source
[21] = target: T1, SARS-CoV spike RBD (R306-F527), …; test: lateral flow NC50, RBD-AuNP vs immobilised ACE2
[22] = target: T2, recombinant monomeric SARS-CoV-1 S1 …; test: antigen-down ELISA, coated SARS-CoV-1 S1 titrated, Ab 1 µg/mL; remark: listed apart in the source
[23] = target: T1, SARS-CoV spike RBD (R306-F527), …; test: antigen-down ELISA, coated SARS-CoV-1 S1 RBD titrated, Ab 1 µg/mL; remark: listed apart in the source

Row | Binder | percent blocking [1] [%] | percent blocking [2] [%] | percent blocking [5] [%] | percent blocking [6] [%] | percent blocking [7] [%] | percent blocking [8] [%] | percent blocking [9] [%] | percent blocking [11] [%] | further results
1 | 1035709 (antibody, V domains shown) VH: EVQLQQSGPELVKPGASVKISCKTSGYTFTEYTMHWVKQSHGKSLEWIGGINPNIVDTGYNQKFKGKATLTVDKSSSTAYMELRSLTSEDSAVYYCARDGYPLYYAMDYWGQGTSVTVSS VL: DIQMTQSPSSLSASLGERVSLTCRASQEISGYLSWLQQKPDGTIKRLIYAASTLDSGVPKRFSGSRSGSDYSLTISSLESEDFADYYCLQYASYPWTFGGGTKLEIK | 0 | 0 | 93.6 | 93.6 | 0 | 96.5 | 0 | 96.5 | binding result (BSA [3]): no binding (tested: 10 µg/mL); binding result [4]: no binding (tested: 400 ng coated (axis)); binding result [10]: no binding (tested: 400 ng coated (axis))
2 | 1035762 (antibody, V domains shown) VH: EVQLQQSGPELVKPGASVKISCKTSGYTFTEYTMHWVKQSHGKSLEWIGGINPNNGDTGYNQKFKGKATLTVDKSSSTAYMELRSLTFEDSAVYYCARDGYPLYYAMDYWGQGTSVTVSS VL: DIQMTQSPSSLSASLGERVSLTCRASQEISGYLCWLQQKPDGTIKRLIYAASTLDSAVPKRFSGSRSGSDYSLTISSLESEDFADFYCLQYASYPWTFGGGTKLEIK | 0 | 0 | 93.2 | 93.2 | 0 | 93 | 0 | 93 | binding result [12]: no binding (tested: 400 ng coated (axis)); binding result (BSA [13]): no binding (tested: 10 µg/mL); binding result [14]: no binding (tested: 400 ng coated (axis))
3 | 1035753 (antibody, V domains shown) VH: EVQLQQSGAELVRPGALVKLSCKASGFNIKDYYMHWVKQRPEQGLEWIGWIDPENGNTIYDPKFLGKASITADTSSNTAYLQLSSLTSEDTAVYYCARWYYYAMDSWGQGTSVTVSS VL: DIQMTQTTSSLSASLGDRVTISCSASQGISNYLNWYQQKPDGTVKLLIYYTSSLHSGVPSRFSGSGSGTDYSLTISNLEPEDIATYYCQQYSKLPFTFGGGTNLEMK | 0 | 0 | 94 | 94 | 0 | 96.6 | 0 | 96.6 | binding result [15]: no binding (tested: 400 ng coated (axis)); binding result [16]: no binding (tested: 400 ng coated (axis)); binding result (BSA [17]): no binding (tested: 10 µg/mL)
4 | 1035755 (antibody, V domains shown) VH: EVQLQQSGAELVRPGALVKLSCKASGFNIKDYYMHWVKQRPEQGLEWIGWIDPENGNSIYDPKFQGKASITADTSSNTAYLQLSSLTSEDTAVYYCATPSATSYFDYWGQGTTLTVSS VL: QIVLTQSPAIMSASPGEKVTISCSASSSVSYMYWYQQKPGSSPKPWIYRTSNLASGVPARFSGSGSGTSYSLTISSMEAEDAATYYCQQYHSYPYMYTFGGGTKLEIK | 0 | 1.3 | 93.3 | 93.3 | 0 | 84.6 | 1.3 | 84.6 | binding result [18]: no binding (tested: 400 ng coated (axis)); binding result [19]: no binding (tested: 400 ng coated (axis))
5 | 1035740 (antibody, V domains shown) VH: EVLLQQSGPELVKPGASVKIPCKASGYTFTDYNMDWVKQSHGKSLEWIGDINPNNGFTIYNQKFKGKATLTVDKSSSTAYMELRSLTSEDTAVYYCAREGYGNYFDYWGQGTTLTVSS VL: DVLLTQSPAILSVSPGERVSFSCRASQSIGTSLHWYQQRTNGSPRLLIKYVSESISGIPSRFSGSGSGTDFTLSINSVESEDIADYYCQQSSSWPTTFGAGTKLELK | 98.8 | 92.4 | 93.4 | 93.4 | 98.8 | 96.5 | 92.4 | 96.5 | binding result (BSA [20]): no binding (tested: 10 µg/mL); IC50 [21]: 0.84 µg/mL
6 | 1035211 (antibody, V domains shown) VH: QVQLQQSGAELARPGASVKMSCKASGYTFTNYTMHWVKQRPGQGLEWIGYINPSSGYTNYNQKFKDKATLTADKSSSTAYMQLSSLTSEDSAVYYCARRNPLYAMDYWGQGTSVTVSS VL: DIKMTQSPSSMYASLGERVTITCKASQDINSYLNWFQQKPGKSPKTLIYRANRLVDGVPSRFSGSGSGQDYSLTISSLEFEDMGIYYCLQYDEFPYTFGGGTKLEIK | 0.1 | 0 | 88.7 | 88.7 | 0.1 | 78.6 | 0 | 78.6 | binding result [22]: no binding (tested: 400 ng coated (axis)); binding result [23]: no binding (tested: 400 ng coated (axis))
